Experimental data from article PMC9646525, “Cryo-EM structure of the SEA complex” (Nature, 2022).

Molecular target: the molecule itself
Experiment: cryo-EM structure; endogenous SEAC purified from yeast via Sea4-TAP (IgG Dynabeads, TEV elution in 20 mM HEPES-NaOH pH 7.4, 300 mM NaCl, 2 mM DTT), on graphene-oxide-coated grids

B1: Sea4-TAP (natural protein, UniProt P38164 1-1038, looked up)
chain: MGLIKKVTHWSYDNLIDYLSVNPTRDEVTHYKVDPENESDESIIKLHTVKDFGSITCLDYSESEIGMIGVGEKNGYLRIFNISGQNSSSPASHAPVGLNANNETSMTNASGGKAAQAENIVGSVSNLKDTQGYPVSETNYDIRVRAKKQRCINSLGINTNGLIAMGLDRNKHDSSLQIWDMNYHDDSHETINPMFSYCTNESIVSLKFLNDTSVLAASTKFLKEIDVRSPNPIYQHPTRLTYDIKLNPFNDWQFSTYGDDGTLAIWDRRKLSDQASLGDLNVASPLLTFEKLVGSGAASRKYMNSCFRWSCVRNNEFATLHRGDTIKRWRLGYYCDSNRDIAADDDNEMNIENLFVSSVHDTNTMYDRVATFDYIPRSNNGTSLICMRQSGTIYRMPISEVCSKAILNNRNSLLLSNFENTEIDEIRVNNEHEKSNLENVKTILKNLSFEDLDVSEDYFPSGHDEPNNEIEYSELSEEENEGSNDVLDSKRGFELFWKPEKLLEKDISVIMRTRASLGYGLDPMNTVEMIDSSKNLQNNAYIRNTWRWIAIAKASVDDGTMVSGDLDLGYEGVIGIWNGINGISNQDRYRQETILSDKQLNKEMEKIIKLRRKNRDRNSPIANAAGSPKYVQRRLCLIISGWDLSRSDYEDKYNIIMKNGHYEKAAAWAVFFGDIPKAVEILGSAKKERLRLIATAIAGYLAYKDLPGNNAWRQQCRKMSSELDDPYLRVIFAFIADNDWWDILYEPAISLRERLGVALRFLNDTDLTTFLDRTSSTVIENGELEGLILTGITPNGIDLLQSYVNKTSDVQSAALISIFGSPRYFRDQRVDEWIQTYRDMLKSWELFSMRARFDVLRSKLSRTKTGVLTADIKPRQIYIQCQNCKQNINTPRTSSPSSAVSTSAGNYKNGEAYRRNNADYKKFNTGSSEAQAADEKPRHKYCCPHCGSSFPRCAICLMPLGTSNLPFVINGTQSRDPMQTEDSQDGANRELVSRKLKLNEWFSFCLSCNHGMHAGHAEEWFDRHNVCPTPGCTCQCNK
notes: Sea4, S. cerevisiae, endogenous subunit of the SEAC (SEACAT, core), TAP-tagged; Captured by the TAP tag on IgG beads; the complex was released with TEV protease before SDS-PAGE and cryo-EM; Written 'Sea4-TAP'; Four copies in the SEAC; source: endogenous, yeast cells expressing Sea4-TAP; in lysate, purified on IgG-coupled Dynabeads and eluted with TEV protease
stoichiometry N: 4
